For assay [1], the target named is solRP105-MD1 complex (mouse) (UniProt O88188). Nature of the assay: SEC-MALS; WTC-030S5 column (Wyatt); 50 mM Tris-Cl pH 8.0, 300 mM NaCl; 0.5 ml/min; purified solRP105-MD1 complex.
Assay [2] has the same target. Nature of the assay: SEC; Superdex 200 PC3.2/30; 50 mM Tris-Cl pH 8.0, 300 mM NaCl; 0.05 ml/min; purified solRP105 and purified solRP105-MD1 complex.
Assay [3] addresses T1, soluble RP105 (extracellular domain of mouse RP105, residues Thr21-Ala630) (mouse).
T1 sequence (Q62192 whole entry, looked up): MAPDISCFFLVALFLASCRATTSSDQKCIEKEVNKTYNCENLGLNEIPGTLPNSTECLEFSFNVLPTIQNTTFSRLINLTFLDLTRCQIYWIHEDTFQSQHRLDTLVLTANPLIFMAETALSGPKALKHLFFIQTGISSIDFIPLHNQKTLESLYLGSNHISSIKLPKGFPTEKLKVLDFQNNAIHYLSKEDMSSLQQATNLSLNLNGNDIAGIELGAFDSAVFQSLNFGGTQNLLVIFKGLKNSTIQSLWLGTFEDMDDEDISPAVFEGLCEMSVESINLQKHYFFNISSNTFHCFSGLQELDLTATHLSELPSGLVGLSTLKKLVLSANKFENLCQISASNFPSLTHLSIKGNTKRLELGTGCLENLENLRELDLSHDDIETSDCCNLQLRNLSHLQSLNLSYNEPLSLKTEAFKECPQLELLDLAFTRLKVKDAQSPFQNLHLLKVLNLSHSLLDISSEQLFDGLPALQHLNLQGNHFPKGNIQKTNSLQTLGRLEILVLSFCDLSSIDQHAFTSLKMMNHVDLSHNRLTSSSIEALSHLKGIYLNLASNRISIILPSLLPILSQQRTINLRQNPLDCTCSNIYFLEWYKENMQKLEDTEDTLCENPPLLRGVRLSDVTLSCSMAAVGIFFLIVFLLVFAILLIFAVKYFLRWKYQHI
Nature of the assay: SEC-MALS; WTC-030S5 column (Wyatt); 50 mM Tris-Cl pH 8.0, 300 mM NaCl; 0.5 ml/min; purified solRP105-MD1 complex.

In the case of “solRP105-MD1 complex (from UniProt O88188 20-162)”, the stoichiometry N (RP105-MD1 units per complex) in assay [1] and in assay [2] was 2 in each case.

B1: mouse MD1 without its native signal sequence (residues Asp20-Ser162) (natural protein)
chain: DHGSENGWPKHTACNSGGLEVVYQSCDPLQDFGLSIDQCSKQIQSNLNIRFGIILRQDIRKLFLDITLMAKGSSILNYSYPLCEEDQPKFSFCGRRKGEQIYYAGPVNNPGLDVPQGEYQLLLELYNENRATVACANATVTSSAAA
modifications: differential N-glycosylation at Asn96 and Asn156
Turning to B1, the stoichiometry N (MD1 per RP105 (2:2)) in assay [3] came out at 1.

(Values after article PMC3699456.)
